Data taken from article PMC4169579, “Proteolytic Activity of Prostate-Specific Antigen (PSA) towards Protein Substrates and Effect of Peptides Stimulating PSA Activity” (PLoS ONE, 2014).
Each block holds one binder with its values, some of them ahead of it. Positions of bridges follow the written chain, without caps; N, C: chain ends. No end group written: not given here.

How the values were obtained:
[1] = molecular target: T1, Prostate-specific antigen (PSA or kallikrein-related peptidase-3, KLK3), major form of active PSA (isoform … (human, UniProt P07288 25-261)); assay: SPR; Biacore T100; PSA amine-coupled to a CM5 chip (2000-3900 RU); alpha-chymotrypsin surface as reference, subtracted; peptides 1.2-600 uM flowed in PBS pH 7.4 (6.7 mM PO4, 0.15 M NaCl), 40 ul/min, 25 C, contact 60 s, dissociation 180 s; Steady State Affinity model; conditions: both partners purified
T1 construct: prostate-specific antigen (PSA, kallikrein-related peptidase-3, KLK3), human, 28 kDa serine protease; the major enzymatically active form (isoform PSA-B) isolated from seminal fluid; Amine-coupled to a CM5 chip for SPR
T1 sequence (P07288 25-261): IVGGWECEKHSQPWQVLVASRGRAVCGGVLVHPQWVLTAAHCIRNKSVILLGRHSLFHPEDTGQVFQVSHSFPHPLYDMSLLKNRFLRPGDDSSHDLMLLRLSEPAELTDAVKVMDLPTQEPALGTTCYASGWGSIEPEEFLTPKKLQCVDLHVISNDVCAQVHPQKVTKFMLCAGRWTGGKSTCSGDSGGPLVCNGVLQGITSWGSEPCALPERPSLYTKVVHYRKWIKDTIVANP

[2] = molecular target: T1, Prostate-specific antigen (PSA or …); assay: cell-based or functional assay

Kd [1]: 73.6 µM
B1: 12-amino acid cyclic peptide B2 (without C-terminal amidation) (peptide)
peptide: CVFAHNYDYLVC-OH
modifications: disulfide 1-12; N-terminus assumed
SMILES: CC(C)C[C@@H]1NC(=O)[C@H](Cc2ccc(O)cc2)NC(=O)[C@H](CC(=O)O)NC(=O)[C@H](Cc2ccc(O)cc2)NC(=O)[C@H](CC(N)=O)NC(=O)[C@H](Cc2c[nH]cn2)NC(=O)[C@H](C)NC(=O)[C@H](Cc2ccccc2)NC(=O)[C@H](C(C)C)NC(=O)[C@@H](N)CSSC[C@@H](C(=O)O)NC(=O)[C@H](C(C)C)NC1=O
notes: cyclic; purity over 95% by HPLC; source: synthetic peptide, bought as custom peptide (AnaSpec, NeoMPS, Biomatik or GenScript)

[peptide]2V: peptide concentration with two-fold stimulation of PSA activity, chromogenic substrate S-2586 [2]: 3.33 µM
[peptide]2V: peptide concentration with two-fold stimulation of PSA activity, fluorogenic substrate 4-morpholinecarbonyl-HSSKLQ-AMC [2]: 2.94 µM
Kd [1]: 56.5 µM
B2: 12-amino acid cyclic peptide B2 with C-terminal amidation (B2-NH2) (peptide)
peptide: CVFAHNYDYLVC-NH2
modifications: disulfide 1-12; N-terminus assumed
SMILES: CC(C)C[C@@H]1NC(=O)[C@H](Cc2ccc(O)cc2)NC(=O)[C@H](CC(=O)O)NC(=O)[C@H](Cc2ccc(O)cc2)NC(=O)[C@H](CC(N)=O)NC(=O)[C@H](Cc2c[nH]cn2)NC(=O)[C@H](C)NC(=O)[C@H](Cc2ccccc2)NC(=O)[C@H](C(C)C)NC(=O)[C@@H](N)CSSC[C@@H](C(N)=O)NC(=O)[C@H](C(C)C)NC1=O
notes: as for B1

[peptide]2V: peptide concentration with two-fold stimulation of PSA activity, chromogenic substrate S-2586 [2]: 1.55 µM
[peptide]2V: peptide concentration with two-fold stimulation of PSA activity, fluorogenic substrate 4-morpholinecarbonyl-HSSKLQ-AMC [2]: 1.36 µM
Binder: CVAYCIEHHCWTC (disulfide 1-13, 5-10) [13-amino acid double cyclic peptide C4]
